Literature values as cited in article PMC4776130.
Where two headings read alike, the source gives them in different places.

Columns and labels:
[1] = target: Glu122 (UniProt position 204, GNNTHEQLLRK); conditions: folded SNase Delta+PHS
[2] = target: Asp83 (UniProt position 165, KGQRTDKYGRG); conditions: folded SNase Delta+PHS
[3] = target: Glu52 (UniProt position 134, PKKFNEKYGPE); conditions: folded SNase Delta+PHS
[4] = target: Glu129 (UniProt position 211, LLRKAEAQAKK); conditions: folded SNase Delta+PHS
[5] = target: Asp19 (UniProt position 101, LIKAIDGDTVK); conditions: folded SNase Delta+PHS
[6] = target: Glu10 (UniProt position 92, KKLHKEPATLI); conditions: folded SNase Delta+PHS
[7] = target: Glu67 (UniProt position 149, TKKMVENAKKI); conditions: folded SNase Delta+PHS
[8] = target: Asp40 (UniProt position 122, RLLLVDTPETK); conditions: folded SNase Delta+PHS
[9] = target: Glu57 (UniProt position 139, EKYGPEASAFT); conditions: folded SNase Delta+PHS
[10] = target: Asp95 (UniProt position 177, AYIYADGKMVN); conditions: folded SNase Delta+PHS
[11] = target: Asp21 (UniProt position 103, KAIDGDTVKLM); conditions: folded SNase Delta+PHS
[12] = target: Glu101 (UniProt position 183, GKMVNEALVRQ); conditions: folded SNase Delta+PHS
[13] = target: Glu43 (UniProt position 125, LVDTPETKHPK); conditions: folded SNase Delta+PHS
[14] = target: Asp77 (UniProt position 159, IEVEFDKGQRT); conditions: folded SNase Delta+PHS
[15] = target: Glu75 (UniProt position 157, KKIEVEFDKGQ); conditions: folded SNase Delta+PHS
[16] = target: His121 (UniProt position 203, KGNNTHEQLLR)
[17] = target: Glu135 (UniProt position 217, AQAKKEKLNIW); conditions: folded SNase Delta+PHS
[18] = target: His8 (UniProt position 90, STKKLHKEPAT)
[19] = target: Glu73 (UniProt position 155, NAKKIEVEFDK); conditions: folded SNase Delta+PHS
[20] = target: T1, His15 (UniProt position 33, AAMKRHGLDNY); experiment: NMR
[21] = target: T1, His15
[22] = target: Glu46 (UniProt position 67, NKDKPEDAVLD); experiment: NMR; conditions: HdeA dimer (remains dimeric from pH 6 down to pH 3)
[23] = target: Asp25 (UniProt position 46, DFLAVDESFQP); experiment: NMR; conditions: HdeA dimer (remains dimeric from pH 6 down to pH 3)
[24] = target: Glu26 (UniProt position 47, FLAVDESFQPT); experiment: NMR; conditions: HdeA dimer (remains dimeric from pH 6 down to pH 3)
[25] = target: Asp47 (UniProt position 68, KDKPEDAVLDV); experiment: NMR; conditions: HdeA dimer (remains dimeric from pH 6 down to pH 3)
[26] = target: Asp51 (UniProt position 72, EDAVLDVQGIA); experiment: NMR; conditions: HdeA dimer (remains dimeric from pH 6 down to pH 3)
[27] = target: Asp69 (UniProt position 90, QACTQDKQANF); experiment: NMR; conditions: HdeA dimer (remains dimeric from pH 6 down to pH 3)
[28] = target: Asp76 (UniProt position 97, QANFKDKVKGE); experiment: NMR; conditions: HdeA dimer (remains dimeric from pH 6 down to pH 3)
[29] = target: Asp43 (UniProt position 64, ALNNKDKPEDA); experiment: NMR; conditions: HdeA dimer (remains dimeric from pH 6 down to pH 3)
[30] = target: Glu19 (UniProt position 40, NSWTCEDFLAV); experiment: NMR; conditions: HdeA dimer (remains dimeric from pH 6 down to pH 3)
[31] = target: Asp83 (UniProt position 104, VKGEWDKIKKD); experiment: NMR; conditions: HdeA dimer (remains dimeric from pH 6 down to pH 3)
[32] = target: Asp20 (UniProt position 41, SWTCEDFLAVD); experiment: NMR; conditions: HdeA dimer (remains dimeric from pH 6 down to pH 3)
[33] = target: Glu81 (UniProt position 102, DKVKGEWDKIK); experiment: NMR; conditions: HdeA dimer (remains dimeric from pH 6 down to pH 3)

**Q.** What does the source list for “Staphylococcal nuclease (SNase), Delta+PHS variant (Staphylococcus aureus; G50F;V51N;P117G;H124L;S128A;del44-49)”?
**A.** pKa [1]: 3.89; pKa [2]: <2.2; pKa [3]: 3.93; pKa [4]: 3.75; pKa [5]: 2.21; pKa [6]: 2.82; pKa [7]: 3.76; pKa [8]: 3.87; pKa [9]: 3.49; pKa [10]: 2.16; pKa [11]: 6.54; pKa [12]: 3.81; pKa [13]: 4.32; pKa [14]: <2.2; pKa [15]: 3.26; pKa [16]: 5.25; pKa [17]: 3.76; pKa [18]: 6.50; pKa [19]: 3.31

**Q.** For “Hen egg-white lysozyme (HEWL) (Gallus gallus)”, which pKa [20] is on record?
**A.** 5.5 ± 0.2

**Q.** What about the pKa [21] of the same substance?
**A.** 5.68–5.74

**Q.** For “Acid stress chaperone HdeA (Escherichia coli)”, which pKa [22] is on record?
**A.** 4.07

**Q.** And the pKa [23]?
**A.** 3.71

**Q.** What about the pKa [24] of the same substance?
**A.** 4.57

**Q.** And the pKa [25]?
**A.** 4.14

**Q.** What about the pKa [26] of the same substance?
**A.** 3.83

**Q.** And the pKa [27]?
**A.** 3.74

**Q.** What about the pKa [28] of the same substance?
**A.** 3.75

**Q.** What about the pKa [29] of the same substance?
**A.** 3.87

**Q.** And the pKa [30]?
**A.** 4.38

**Q.** And the pKa [31]?
**A.** 3.97

**Q.** And the pKa [32]?
**A.** 3.66

**Q.** What about the pKa [33] of the same substance?
**A.** 4.23
